Data: paper PMC10031466 (The Journal of Biological Chemistry, 2023)

Molecular target: the molecule itself
Experiment: crystal structure; microbatch crystallization of His-SUMO tagged P. shigelloides NagK (5 mg/ml), Morpheus I screen with matrix microseeding; apo structure PDB 7P7I, 2 protein monomers in the a.u.

B1: N-acetylglucosamine kinase (NagK) from Plesiomonas shigelloides (enzyme)
chain: MYYGFDIGGTKIEFGAFDADLVRVARERVATPTESYAAFLDAIVTLVNNADAEFGVKGTVGIGIPGIADVETGKLLTSNIPAAMGHTLQRDLEERLQRPVKIENDANCFALSEAWDEDLRGEPSVLGLILGTGVGGGLIFNGKVHSGRANIAGEIGHTRLPYDALKLLGMENAPIFPCGCKNSGCIDNYLSGRGFEQLYDHYFSEKLSAPEIIAHYEQGERRAVQHVERFMELLAICLANIFTCLDPHVVVLGGGLSNFELIYQELPKRLPAHLLHVAKLPKIIKARHGDAGGVRGAAFLNL
notes: N-acetylglucosamine kinase NagK of Plesiomonas shigelloides, codon-optimized nagK gene in pOPINS3C; also called PsNagK; P. shigelloides NagK; source: E. coli BL21 (DE3), purified (HisTrap, Superdex 200 size exclusion); not shown: polyhistidine, N-terminal, kept; SUMO, N-terminal, kept
Question: Which “stoichiometry N” value does the source give for B1 here?
Answer: The value was 2.
